According to patent publication US20170022287A1 (Chugai, published 2017):

Experiments:
[1] = molecular target: full-length human CD137-Fc fusion protein (human); test: ELISA, coated CD137-Fc protein 2 µg/mL, antibody 10 or 5 µg/mL, absorbance 620 nm; Non (uncoated well) 0.049
CRD1-3 [2] = molecular target: T1, CRD1-3; test: as above
T1 construct: also called fragmented human CD137-Fc fusion protein CRD1-3

CRD1 [3] = molecular target: T2, CRD1; test: as above
T2 construct: also called fragmented human CD137-Fc fusion protein CRD1

CRD2-3 [4] = molecular target: T3, CRD2-3; test: as above
T3 construct: also called fragmented human CD137-Fc fusion protein CRD2-3

CRD1-2 [5] = molecular target: T4, CRD1-2; test: as above
T4 construct: also called fragmented human CD137-Fc fusion protein CRD1-2

CRD2-4 [6] = molecular target: T5, CRD2-4; test: as above
T5 construct: also called fragmented human CD137-Fc fusion protein CRD2-4

CRD3-4 [7] = molecular target: T6, CRD3-4; test: as above
T6 construct: also called fragmented human CD137-Fc fusion protein CRD3-4

[8] = molecular target: full-length human CD137-Fc fusion protein (human); test: ELISA, coated CD137-Fc protein 2 µg/mL, antibody 10 or 5 µg/mL; absorbance 620 nm divided by that of the uncoated well
CRD1-3 [9] = molecular target: T1, CRD1-3; test: as above
CRD1 [10] = molecular target: T2, CRD1; test: as above
CRD2-3 [11] = molecular target: T3, CRD2-3; test: as above
CRD1-2 [12] = molecular target: T4, CRD1-2; test: as above
CRD2-4 [13] = molecular target: T5, CRD2-4; test: as above
CRD3-4 [14] = molecular target: T6, CRD3-4; test: as above
[15] = molecular target: full-length human CD137-Fc fusion protein (human); test: ELISA, coated CD137-Fc protein 2 µg/mL, antibody 10 or 5 µg/mL, absorbance 620 nm; Non (uncoated well) 0.101
CRD1-3 [16] = molecular target: T1, CRD1-3; test: as above
CRD2-3 [17] = molecular target: T3, CRD2-3; test: as above
CRD1-2 [18] = molecular target: T4, CRD1-2; test: as above
CRD2-4 [19] = molecular target: T5, CRD2-4; test: as above
CRD3-4 [20] = molecular target: T6, CRD3-4; test: as above
[21] = molecular target: T7, mouse Fcγ receptor III extracellular domain with C-terminal His tag (mouse, UniProt P08508 31-215); test: SPR (Biacore); against naturally-occurring mIgG1 (H237-mIgG1/MRAL-k0)
T7 construct: extracellular domain; also called mFcγRIII; not shown: His tag at the C terminus
T7 sequence (looked up): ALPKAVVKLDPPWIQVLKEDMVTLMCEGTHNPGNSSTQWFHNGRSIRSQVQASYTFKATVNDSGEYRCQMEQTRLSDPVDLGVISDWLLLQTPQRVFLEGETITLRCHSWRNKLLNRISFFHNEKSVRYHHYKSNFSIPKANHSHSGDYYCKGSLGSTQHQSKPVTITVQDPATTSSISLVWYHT

[22] = molecular target: T8, mouse Fcγ receptor II extracellular domain with C-terminal His tag (mouse, UniProt P08101 30-210); test: as above
T8 construct: extracellular domain; also called mFcγRII; mFcgRII; not shown: His tag at the C terminus
T8 sequence (looked up): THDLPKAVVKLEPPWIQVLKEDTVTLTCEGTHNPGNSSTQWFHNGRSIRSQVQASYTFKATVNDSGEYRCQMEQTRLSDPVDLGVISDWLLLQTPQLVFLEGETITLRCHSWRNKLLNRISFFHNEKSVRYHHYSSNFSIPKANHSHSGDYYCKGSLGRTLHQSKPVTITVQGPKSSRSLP

[23] = molecular target: T7, mouse Fcγ receptor III extracellular …; test: SPR (Biacore) kinetics, antibody captured on Protein L, mFcγR as analyte, 1:1 Langmuir model
Procedure: (§1) The ion exchange column chromatography of step 1 was carried out using Q Sepharose HP for mFcγRI, using SP Sepharose FF for mFcγRII and mFcγRIV, and using SP Sepharose HP for mFcγRIII. While the solvent used in step 3 and the subsequent step was D-PBS(−), D-PBS(−) containing 0.1 M Arginine was used for mFcγRIII. The absorbance at 280 nm was measured for the purified proteins using a spectrophotometer. […] The interaction between each modified antibody and the Fcγ receptor prepared as mentioned above was analyzed using Biacore T100 (GE Healthcare), Biacore T200 (GE Healthcare), Biacore A100, and Biacore 4000. The running buffer used was HBS-EP+(GE Healthcare) and the measurement temperature was set to 25° C. The chip used was: a Series S Sensor Chip CM5 (GE Healthcare) or Series S Sensor Chip CM4 (GE Healthcare) to which Protein L (ACTIGEN or BioVision) was immobilized by the amine coupling method. Antibodies of interest were captured onto these sensor chips, and mFcγR diluted with the running buffer was allowed to interact with them. The amount bound by the antibodies was measured and compared between the antibodies. However, since the amount of mFcγR bound depends on the amount of the captured antibody, the comparison was carried out on corrected values obtained by dividing the amount of bound mFcγR by the amount of each antibody captured. Furthermore, 10 mM glycine-HCl, pH 1.5 was reacted to wash out the captured antibody from the sensor chips, and the sensor chip was regenerated and used repeatedly. Kinetic analyses for calculating the KD values of each altered antibody to FcγR were performed according to the method below. First, antibodies of interest were captured onto the above-mentioned sensor chips, and mFcγR diluted with the running buffer was allowed to interact with them. […] From those values, the dissociation constant KD (mol/L) was determined.

[24] = molecular target: T8, mouse Fcγ receptor II extracellular …; test: as above
Procedure: as §1

T3 sequence (chain, as listed by the source limits assumed): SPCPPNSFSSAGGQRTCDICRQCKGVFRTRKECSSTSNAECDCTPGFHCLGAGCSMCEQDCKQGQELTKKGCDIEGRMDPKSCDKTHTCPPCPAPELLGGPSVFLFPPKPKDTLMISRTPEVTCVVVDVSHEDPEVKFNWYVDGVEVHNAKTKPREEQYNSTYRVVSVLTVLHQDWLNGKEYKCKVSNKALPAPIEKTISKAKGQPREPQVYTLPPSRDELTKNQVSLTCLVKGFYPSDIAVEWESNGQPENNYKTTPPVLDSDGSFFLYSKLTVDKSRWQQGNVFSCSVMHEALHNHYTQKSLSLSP
T1 sequence (chain, as listed by the source limits assumed): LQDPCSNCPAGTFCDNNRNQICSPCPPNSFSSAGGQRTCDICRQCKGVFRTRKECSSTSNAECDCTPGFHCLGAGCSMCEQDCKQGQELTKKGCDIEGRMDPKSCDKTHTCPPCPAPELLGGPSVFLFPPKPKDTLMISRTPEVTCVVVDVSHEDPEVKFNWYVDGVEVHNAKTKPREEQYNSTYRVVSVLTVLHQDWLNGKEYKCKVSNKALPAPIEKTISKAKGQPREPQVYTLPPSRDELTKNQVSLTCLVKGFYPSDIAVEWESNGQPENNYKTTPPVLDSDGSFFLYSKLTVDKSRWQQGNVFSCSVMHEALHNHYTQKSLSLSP
T4 sequence (chain, as listed by the source limits assumed): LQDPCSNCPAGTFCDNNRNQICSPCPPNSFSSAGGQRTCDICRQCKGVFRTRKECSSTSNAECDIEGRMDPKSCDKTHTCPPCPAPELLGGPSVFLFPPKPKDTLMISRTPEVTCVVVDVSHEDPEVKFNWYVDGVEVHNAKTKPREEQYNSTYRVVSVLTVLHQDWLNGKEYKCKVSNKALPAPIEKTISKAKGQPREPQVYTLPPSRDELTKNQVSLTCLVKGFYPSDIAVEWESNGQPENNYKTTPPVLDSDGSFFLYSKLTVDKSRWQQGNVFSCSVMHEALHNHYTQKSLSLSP
T5 sequence (chain, as listed by the source limits assumed): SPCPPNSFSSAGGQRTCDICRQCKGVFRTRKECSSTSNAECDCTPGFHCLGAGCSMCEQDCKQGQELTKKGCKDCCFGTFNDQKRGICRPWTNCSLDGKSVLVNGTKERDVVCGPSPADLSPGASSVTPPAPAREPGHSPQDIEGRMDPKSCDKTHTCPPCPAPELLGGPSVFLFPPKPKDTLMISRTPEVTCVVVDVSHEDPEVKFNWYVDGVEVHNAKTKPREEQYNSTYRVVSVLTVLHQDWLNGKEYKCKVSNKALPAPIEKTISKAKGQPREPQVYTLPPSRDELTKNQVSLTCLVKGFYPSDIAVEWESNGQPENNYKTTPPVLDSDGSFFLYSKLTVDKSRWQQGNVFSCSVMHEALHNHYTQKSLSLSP
T6 sequence (chain, as listed by the source limits assumed): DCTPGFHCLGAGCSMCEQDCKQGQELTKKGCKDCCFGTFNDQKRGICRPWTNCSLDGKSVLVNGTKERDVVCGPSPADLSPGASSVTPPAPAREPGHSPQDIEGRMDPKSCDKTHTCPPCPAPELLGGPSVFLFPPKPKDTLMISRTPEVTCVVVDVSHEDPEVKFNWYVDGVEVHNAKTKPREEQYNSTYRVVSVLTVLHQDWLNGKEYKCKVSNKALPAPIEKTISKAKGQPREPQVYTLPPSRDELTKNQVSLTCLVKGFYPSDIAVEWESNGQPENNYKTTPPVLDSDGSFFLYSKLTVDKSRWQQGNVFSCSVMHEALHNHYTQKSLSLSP
Sequence of full-length human CD137-Fc fusion protein (human) (chain, as listed by the source limits assumed): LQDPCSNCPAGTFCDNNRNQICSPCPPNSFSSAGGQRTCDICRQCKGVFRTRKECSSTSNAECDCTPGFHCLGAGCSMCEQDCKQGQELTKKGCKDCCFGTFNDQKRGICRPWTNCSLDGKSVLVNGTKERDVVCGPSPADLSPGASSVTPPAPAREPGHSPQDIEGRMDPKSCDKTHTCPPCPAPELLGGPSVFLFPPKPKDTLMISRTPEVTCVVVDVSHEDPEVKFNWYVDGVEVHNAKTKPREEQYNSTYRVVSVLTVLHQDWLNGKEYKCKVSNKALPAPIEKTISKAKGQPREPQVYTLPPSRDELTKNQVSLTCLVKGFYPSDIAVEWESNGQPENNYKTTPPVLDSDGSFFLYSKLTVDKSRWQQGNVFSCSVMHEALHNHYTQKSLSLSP
T2 sequence (chain, as listed by the source limits assumed): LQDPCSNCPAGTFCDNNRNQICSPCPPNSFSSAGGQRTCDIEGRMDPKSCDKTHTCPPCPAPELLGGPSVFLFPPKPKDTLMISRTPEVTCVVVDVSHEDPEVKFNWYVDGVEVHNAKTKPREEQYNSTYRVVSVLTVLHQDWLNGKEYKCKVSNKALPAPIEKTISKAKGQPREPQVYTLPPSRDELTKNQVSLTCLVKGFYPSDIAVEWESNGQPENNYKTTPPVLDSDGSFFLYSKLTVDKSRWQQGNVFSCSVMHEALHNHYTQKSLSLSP

B1: B (antibody, human IgG1, kappa, V domains shown)
VH: QVQLQQWGAGLLKPSETLSLTCAVYGGSFSGYYWSWIRQSPEKGLEWIGEINHGGYVTYNPSLESRVTISVDTSKNQFSLKLSSVTAADTAVYYCARDYGPGNYDWYFDLWGRGTLVTVSS
VL: EIVLTQSPATLSLSPGERATLSCRASQSVSSYLAWYQQKPGQAPRLLIYDASNRATGIPARFSGSGSGTDFTLTISSLEPEDFAVYYCQQRSNWPPALTFGGGTKVEIKR
notes: also called Control B
- ELISA color development level [1]: 2.67
- ELISA color development level (CRD1-3 [2]): 2.33
- ELISA color development level (CRD1 [3]): 1.75
- ELISA color development level (CRD2-3 [4]): 0.089
- ELISA color development level (CRD1-2 [5]): 2.58
- ELISA color development level (CRD2-4 [6]): 0.097
- ELISA color development level (CRD3-4 [7]): 0.074
- Ratio with respect to Non-Coating [8]: 54.6
- Ratio with respect to Non-Coating (CRD1-3 [9]): 47.5
- Ratio with respect to Non-Coating (CRD1 [10]): 35.7
- Ratio with respect to Non-Coating (CRD2-3 [11]): 1.8
- Ratio with respect to Non-Coating (CRD1-2 [12]): 52.7
- Ratio with respect to Non-Coating (CRD2-4 [13]): 2
- Ratio with respect to Non-Coating (CRD3-4 [14]): 1.5

B2: R10 (antibody, V domains shown)
VH: not shown
VL: DIQMTQSPSSLSASVGDRVTITCRASQSISSYLNWYQQKPGKAPKLLIYAASSLQSGVPSRFSGSGSGTDFTLTISSLQPEDFATYYCQQFDNFPLTFGGGTKVEIK
notes: Synthetic library clone; Fab on phage in the phage ELISA
- ELISA color development level [15]: 2.59
- ELISA color development level (CRD1-3 [16]): 2.46
- ELISA color development level (CRD2-3 [17]): 2.64
- ELISA color development level (CRD1-2 [18]): 0.222
- ELISA color development level (CRD2-4 [19]): 2.46
- ELISA color development level (CRD3-4 [20]): 2.75
- Ratio with respect to Non-Coating [8]: 25.6
- Ratio with respect to Non-Coating (CRD1-3 [9]): 24.4
- Ratio with respect to Non-Coating (CRD2-3 [11]): 26.1
- Ratio with respect to Non-Coating (CRD1-2 [12]): 2.2
- Ratio with respect to Non-Coating (CRD2-4 [13]): 24.3
- Ratio with respect to Non-Coating (CRD3-4 [14]): 27.2

B3: H237-MB492/MRAL-k0 (antibody, mouse IgG1, kappa)
heavy: QVQLQESGPGLVKPSETLSLTCAVSGHSISHDHAWSWVRQPPGEGLEWIGFISYSGITNYNPSLQGRVTISRDNSKNTLYLQMNSLRAEDTAVYYCARSLARTTAMDYWGEGTLVTVSSAKTTPPSVYPLAPGSAAQTNSMVTLGCLVKGYFPEPVTVTWNSGSLSSGVHTFPAVLQSDLYTLSSSVTVPSSTWPSETVTCNVAHPASSTKVDKKIVPRDCGCKPCICEPNEVEDVFIFPPKPKDVLTITLTPKVTCVVVDISKDDPEVQFSWFVDDVEVHTAQTQPREEQFNSTFRSVSELPIMHQDWLNGKEFKCRVDSAAFPAPIEKTISKTKGRPKAPQVYTIPPPKEQMAKDKVSLTCMITDFFPEDITVEWQWNGQPAENYKNTQPIMDTDGSYFVYSKLNVQKSNWEAGNTFTCSVLHEGLHNHHTEKSLSHSPGK
light: not shown
notes: Mouse IgG1 constant region variant MB492 (T230E, V231P, P232N, S238E, S239D, N324D, as described for 1D8VH-MB492); copies: 2 + 2
- Relative binding activity [21]: 10.9 fold (mIgG1 = 1)
- Relative binding activity [22]: 622 fold (mIgG1 = 1)
- Kd [23]: 25.8 nM
- Kd [24]: 0.338 nM
